The values that follow come from the Human Domainome abundance scans (Beltran et al. 2025).

± gives the uncertainty stated by the source.

This data set is described as follows: abundance fitness (aPCA) (normalised: wild type 0, dead -1); higher = more abundant; growth selection in yeast, the domain comes from the species named. Particulars: Homo sapiens.
The substance “Lipoamide acyltransferase component of branched-chain alpha-keto acid dehydrogenase complex, mitochondrial N207C, P11182” yielded an abundance fitness of -0.302 ± 0.1.

Consider “Lipoamide acyltransferase component of branched-chain alpha-keto acid dehydrogenase complex, mitochondrial N207D, P11182”, for which the abundance fitness was -0.009 ± 0.049.

Turning to “Lipoamide acyltransferase component of branched-chain alpha-keto acid dehydrogenase complex, mitochondrial N207E, P11182”, the abundance fitness was -0.043 ± 0.047.

Regarding “Lipoamide acyltransferase component of branched-chain alpha-keto acid dehydrogenase complex, mitochondrial N207F, P11182”, the abundance fitness was -0.339 ± 0.091.

“Lipoamide acyltransferase component of branched-chain alpha-keto acid dehydrogenase complex, mitochondrial N207G, P11182” registered an abundance fitness of -0.03 ± 0.042.

Substance “Lipoamide acyltransferase component of branched-chain alpha-keto acid dehydrogenase complex, mitochondrial N207I, P11182” had an abundance fitness of -0.261 ± 0.14.

In turn, “Lipoamide acyltransferase component of branched-chain alpha-keto acid dehydrogenase complex, mitochondrial N207L, P11182” had an abundance fitness of -0.048 ± 0.048.

“Lipoamide acyltransferase component of branched-chain alpha-keto acid dehydrogenase complex, mitochondrial N207P, P11182” displayed an abundance fitness of -0.199 ± 0.051.

Regarding “Lipoamide acyltransferase component of branched-chain alpha-keto acid dehydrogenase complex, mitochondrial N207Q, P11182”, the abundance fitness is 0.035 ± 0.066.

Regarding “Lipoamide acyltransferase component of branched-chain alpha-keto acid dehydrogenase complex, mitochondrial N207S, P11182”, the abundance fitness is -0.017 ± 0.044.

In turn, “Lipoamide acyltransferase component of branched-chain alpha-keto acid dehydrogenase complex, mitochondrial N207V, P11182” had an abundance fitness of -0.11 ± 0.042.

Substance “Lipoamide acyltransferase component of branched-chain alpha-keto acid dehydrogenase complex, mitochondrial N207W, P11182” yielded an abundance fitness of -0.183 ± 0.041.

As for “Lipoamide acyltransferase component of branched-chain alpha-keto acid dehydrogenase complex, mitochondrial N207Y, P11182”, the abundance fitness was -0.453 ± 0.23.

Take “Lipoamide acyltransferase component of branched-chain alpha-keto acid dehydrogenase complex, mitochondrial P175A, P11182”: the abundance fitness amounted to 0.023 ± 0.044.

Substance “Lipoamide acyltransferase component of branched-chain alpha-keto acid dehydrogenase complex, mitochondrial P175C, P11182” yielded an abundance fitness of -0.151 ± 0.062.

“Lipoamide acyltransferase component of branched-chain alpha-keto acid dehydrogenase complex, mitochondrial P175D, P11182” gave an abundance fitness of 0.038 ± 0.048.

On to “Lipoamide acyltransferase component of branched-chain alpha-keto acid dehydrogenase complex, mitochondrial P175E, P11182”, for which the abundance fitness worked out at 0.037 ± 0.047.

For the substance “Lipoamide acyltransferase component of branched-chain alpha-keto acid dehydrogenase complex, mitochondrial P175F, P11182”, the abundance fitness was -0.098 ± 0.064.

“Lipoamide acyltransferase component of branched-chain alpha-keto acid dehydrogenase complex, mitochondrial P175G, P11182” displayed an abundance fitness of -0.268 ± 0.035.

“Lipoamide acyltransferase component of branched-chain alpha-keto acid dehydrogenase complex, mitochondrial P175I, P11182” registered an abundance fitness of -0.133 ± 0.065.

Consider “Lipoamide acyltransferase component of branched-chain alpha-keto acid dehydrogenase complex, mitochondrial P175K, P11182”, for which the abundance fitness was determined as 0.024 ± 0.042.

Substance “Lipoamide acyltransferase component of branched-chain alpha-keto acid dehydrogenase complex, mitochondrial P175L, P11182” had an abundance fitness of -0.119 ± 0.056.

In turn, “Lipoamide acyltransferase component of branched-chain alpha-keto acid dehydrogenase complex, mitochondrial P175M, P11182” yielded an abundance fitness of -0.051 ± 0.081.

In turn, “Lipoamide acyltransferase component of branched-chain alpha-keto acid dehydrogenase complex, mitochondrial P175N, P11182” registered an abundance fitness of -0.096 ± 0.053.

In turn, “Lipoamide acyltransferase component of branched-chain alpha-keto acid dehydrogenase complex, mitochondrial P175Q, P11182” came in with an abundance fitness of -0.008 ± 0.048.

In turn, “Lipoamide acyltransferase component of branched-chain alpha-keto acid dehydrogenase complex, mitochondrial P175R, P11182” had an abundance fitness of -0.16 ± 0.041.

“Lipoamide acyltransferase component of branched-chain alpha-keto acid dehydrogenase complex, mitochondrial P175S, P11182”: the abundance fitness was -0.127 ± 0.044.

“Lipoamide acyltransferase component of branched-chain alpha-keto acid dehydrogenase complex, mitochondrial P175T, P11182” yielded an abundance fitness of -0.016 ± 0.052.

Substance “Lipoamide acyltransferase component of branched-chain alpha-keto acid dehydrogenase complex, mitochondrial P175V, P11182” returned an abundance fitness of -0.029 ± 0.043.

Turning to “Lipoamide acyltransferase component of branched-chain alpha-keto acid dehydrogenase complex, mitochondrial P175W, P11182”, the abundance fitness is -0.136 ± 0.042.

The substance “Lipoamide acyltransferase component of branched-chain alpha-keto acid dehydrogenase complex, mitochondrial P175Y, P11182” returned an abundance fitness of -0.24 ± 0.066.

The substance “Lipoamide acyltransferase component of branched-chain alpha-keto acid dehydrogenase complex, mitochondrial Q212A, P11182” displayed an abundance fitness of 0.006 ± 0.036.

“Lipoamide acyltransferase component of branched-chain alpha-keto acid dehydrogenase complex, mitochondrial Q212C, P11182” showed an abundance fitness of -0.047 ± 0.052.

The substance “Lipoamide acyltransferase component of branched-chain alpha-keto acid dehydrogenase complex, mitochondrial Q212D, P11182” came in with an abundance fitness of -0.009 ± 0.13.

Consider “Lipoamide acyltransferase component of branched-chain alpha-keto acid dehydrogenase complex, mitochondrial Q212E, P11182”, for which the abundance fitness is 0.02 ± 0.043.

In turn, “Lipoamide acyltransferase component of branched-chain alpha-keto acid dehydrogenase complex, mitochondrial Q212F, P11182” displayed an abundance fitness of -0.392 ± 0.11.

For “Lipoamide acyltransferase component of branched-chain alpha-keto acid dehydrogenase complex, mitochondrial Q212G, P11182”, the abundance fitness is 0.023 ± 0.034.

“Lipoamide acyltransferase component of branched-chain alpha-keto acid dehydrogenase complex, mitochondrial Q212H, P11182” displayed an abundance fitness of 0.011 ± 0.065.

“Lipoamide acyltransferase component of branched-chain alpha-keto acid dehydrogenase complex, mitochondrial Q212I, P11182” registered an abundance fitness of -0.255 ± 0.089.

Regarding “Lipoamide acyltransferase component of branched-chain alpha-keto acid dehydrogenase complex, mitochondrial Q212K, P11182”, the abundance fitness was found to be 0.007 ± 0.061.

In turn, “Lipoamide acyltransferase component of branched-chain alpha-keto acid dehydrogenase complex, mitochondrial Q212L, P11182” came in with an abundance fitness of -0.189 ± 0.043.

Regarding “Lipoamide acyltransferase component of branched-chain alpha-keto acid dehydrogenase complex, mitochondrial Q212M, P11182”, the abundance fitness was -0.108 ± 0.049.

With “Lipoamide acyltransferase component of branched-chain alpha-keto acid dehydrogenase complex, mitochondrial Q212N, P11182”, the abundance fitness stood at 0.124 ± 0.14.

In turn, “Lipoamide acyltransferase component of branched-chain alpha-keto acid dehydrogenase complex, mitochondrial Q212P, P11182” registered an abundance fitness of -0.017 ± 0.036.

“Lipoamide acyltransferase component of branched-chain alpha-keto acid dehydrogenase complex, mitochondrial Q212R, P11182” had an abundance fitness of 0.085 ± 0.042.

“Lipoamide acyltransferase component of branched-chain alpha-keto acid dehydrogenase complex, mitochondrial Q212S, P11182” showed an abundance fitness of 0.004 ± 0.04.
